Assay results published in patent US7135326B2, “UDP-glucosyltransferases” (E. I. du Pont de Nemours and Company, priority 2002, dated 2006).
Blank lines part the entries; values can stand above or below the molecule they belong to.

Test: Ratio of enzyme activity with pHBA versus sinapic acid (spectrophotometric assays)
Assay type: biochemical
Conditions: for rate of pHBA glucosylation relative to sinapic acid: cell-free extract; for Ratio of Activity pHBA/SA: Table 4, cell-free extracts, 10 mM pHBA or sinapic acid, 25° C.
Protocol: The second assay is based on the increase in absorbance at 368 nm that accompanies the formation of the glucose ester of sinapic acid. The experimental conditions were the same as those described above, but the test substrate was sinapic acid and product formation was calculated using an extinction coefficient of 5,570 M^−1 that was obtained with the authentic chemically synthesized compound under identical conditions.

rate of pHBA glucosylation relative to sinapic acid (10 mM substrate): over an order of magnitude greater
Ratio of Activity pHBA/SA: 13.2
B1: Eucalyptus GT: Eucalyptus grandis UDP-glucosyltransferase, SEQ ID NO:22 (protein, listed as Eucalyptus grandis)
chain: MGSEALVHVLLVSFPGQGHVNPLLRLGKRLASKGLLVTFTTPESIGKAMRKASNIGEELSPVGDGFIRFEFFEDGWDEDEIRRQDLDQYLPQLEKVGKVLIPEMIRRNAEQGRPISCLINNPFIPWVSDVADSLGLPSAMLWVQSCACFTSYYYYYHGLVPFPSETAMEIDVQLPCMPLLKHDEVPSFLYPTTPYPFLRRAIMGQYKNLDKPFCILMDTFQELEHEIIEYMSKISPIKTVGPLFKNPKAPNATVKGDFMKADDCVGWLDSKPASSIVYVSFGSVVYLKQDQWDEIAYGLLNSGVNFLWVMKPPHKDSGYEVLKMPEGFLEKAGDRGKVVQWSPQEQVLAHPSVACFVTHCGWNSTMEALTSGMPVVAFPQWGDQVTDAKYLVDVFKVGVRMCRGEAENKLITRDVVEQCLREATSGPKAEEMKQNAMKWSAAAEAAVAEGGSSDRNIQAFVDEVKRRSLEVLAASGKSTANGGADLANKVAANGVAELGEPKVNGELKVVS

substrate preference for pHBA over sinapic acid (10 mM substrate concentration): 4.88 fold
rate of pHBA glucosylation relative to sinapic acid (10 mM substrate): at least six times faster
Ratio of Activity pHBA/SA: 6.35
B2: Citrus GT: Citrus mitis UDP-glucosyltransferase, SEQ ID NO:31 (protein, listed as Citrus mitis)
chain: MGTESLVHVLLVSFPGHGHVNPLLRLGRLLASKGFFLTLTTPESFGKQMRKAGNFTYEPTPVGDGFIRFEFFEDGWDEDDPGRRDLDQYMAQLELIGKQVIPKIIKKSAEEYRPVSCLINNPFIPWVSDVAESLGLPSAMLWVQSCACFAAYYHYFHGLVPFPSEKEPEIDVQLPCMPLLKHDEVPSFLHPSTPYPFLRRAILGQYENLGKPFCILLDTFYELEKEIIDYMAKICPIKPVGPLFKNPKAPTLTVRDDCMKPDECIDWLDKKPPSSVVYISFGTVVYLKQEQVEEIGYALLNSGISFLWVMKPPPEDSGVKIVDLPDGFLEKVGDKGKVVQWSPQEKVLAHPSVACFVTHCGWNSTMESLASGVPVITFPQWGDQVTDAMYLCDVFKTGLRLCRGEAENRIISRDEVEKCLLEATAGPKAAELKESALKWKQEAEEAVADGGSSDRNIQAFVDEVRRRSVGIITSSKSKSIHRVKELVEKTATATANDKVELVES

times more active with sinapic acid than pHBA (10 mM substrate, crude extract): at least 80 times
B3: GT 4: Arabidopsis UDP-glucosyltransferase, GenBank AL161541, SEQ ID NO:12 (protein, listed as Arabidopsis thaliana)
chain: MNPSRHTHVMLVSFPGQGHVNPLLRLGKLIASKGLLVTFVTTEKPWGKKMRQANKIQDGVLKPVGLGFIRFEFFSDGFADDDEKRFDFDAFRPHLEAVGKQEIKNLVKRYNKEPVTCLINNAFVPWVCDVAEELHIPSAVLWVQSCACLTAYYYYHHRLVKFPTKTEPDISVEIPCLPLLKHDEIPSFLHPSSPYTAFGDIILDQLKRFENHKSFYLFIDTFRELEKDIMDHMSQLCPQAIISPVGPLFKMAQTLSSDVKGDISEPASDCMEWLDSREPSSVVYISFGTIANLKQEQMEEIAHGVLSSGLSVLWVVRPPMEGTFVEPHVLPRELEEKGKIVEWCPQERVLAHPAIACFLSHCGWNSTMEALTAGVPVVCFPQWGDQVTDAVYLADVFKTGVRLGRGAAEEMIVSREVVAEKLLEATVGEKAVELRENARRWKAEAEAAVADGGSSDMNFKEFVDKLVTKHVTREDNGEH
